From the nanobody polyreactivity screen of Harvey et al. (2022)

Assay: yeast display, Sf9 membrane polyspecificity reagent, FACS + sequencing; frameworks hold sequencing errors
Outline: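 Synthetic nanobody libraries on Saccharomyces cerevisiae BJ5465 were galactose-induced for 36–48 hours, stained 1 hour at 4 °C with 10% biotinylated, detergent-solubilized Sf9 membrane reagent and enriched on streptavidin microbeads. FACS then separated cells into low and high (top ~1%) gates by anti-HA (expression) and streptavidin (reagent binding) fluorescence. Genes were colony-PCR amplified, MiSeq 2 × 250 sequenced and CDR-length filtered. A clone's polyreactivity label is that of its gate of origin.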

QVQLVESGGGLVQAGGSLRLSCAASGFIFTDNAMGWYRQAPGKERELVAAISKNGGSTYYADSVKGRFTISRDNAKNTVYLQMNSLKPEDTAVYYCNTRRKNFDKSSQVEYWGQGTQVTVSS
polyreactivity (PSR sort gate): high polyreactivity

QVQLVESGGGLVQAGGSLRLSCAASGFIFTEYAMGWYRQAPGKEREFVAAISWSGGSTYYADSVKGRFTISRDNAKNTVYLQMNSLKPEDTAVYYCAKRSRGVKYDYWGQGTQVTVSS
polyreactivity (PSR sort gate): high polyreactivity

QVQLVESGGGLVQAGGSLRLSCAASGFIFTFYALGWYRQAPGKEREFVASIDWGDGSTYYADSVKGRFTISRDNAKNTVYLQMNSLKPEDTAVYYCAHDYDGYVWDTEYDYWGQGTQVTVSS
polyreactivity (PSR sort gate): low polyreactivity

QVQLVESGGGLVQAGGSLRLSCAASGFIFTFYAMGWYRQAPGKEREFVASIDWGDGSTYYADSVKGRFTISRDNAKNTVYLQMNSLKPEDSAVYYCAHDYDGYVWDTEYDYWGQGTQVTVSS
polyreactivity (PSR sort gate): low polyreactivity

QVQLVESGGGLVQAGGSLRLSCAASGFIFTGNVMGWYRQAPGKERELVAAIRWSGGRTYYADSVKGRFTISRDNAKNTVYLQMNSLIPEDTAVYYCNALGRVQGYKPGGLDYWGQGTQVTVSS
polyreactivity (PSR sort gate): high polyreactivity

QVQLVESGGGLVQAGGSLRLSCAASGFIFTGNVMGWYRQGPGKERELVAGITYTSGSTYYADSVKGRFTISRDNAKNTVYLQMNSLKPEDTAVYYCAAEVYVPDYFQHKFDVEYEYWGLGTQVTVSS
polyreactivity (PSR sort gate): low polyreactivity

QVQLVESGGGLVQAGGSLRLSCAASGFIFTGYAMGWYRQAPGKERELVAAITKSGGSTYYADSVKGRFTISRDNAKNTVYLQMNSLKPEDTAVYYFNTYLWRWSKGGYLGQGTQVTVSS
polyreactivity (PSR sort gate): high polyreactivity

QVQLVESGGGLVQAGGSLRLSCAASGFIFTKYVMGWYRQAPGKERELVAAISLNGGRTYYADSVKGRFTISRDNAKNTVDLQMNSLKPEDTAVYYCAVDAKAVSARTYDYGYWGQGTQVTVSS
polyreactivity (PSR sort gate): high polyreactivity

QVQLVESGGGLVQAGGSLRLSCAASGFIFTQNGMGWYRQAPGKERELVAAISWSAGGTYYADSVKGRFTISRDNANNTVYLQMNSLKQEDTAVYYCNAELYFYWNVWVGYDYWGQGTQVTVSS
polyreactivity (PSR sort gate): low polyreactivity

QVQLVESGGGLVQAGGSLRLSCAASGFIFTQYAMGWYRQAPGKERELVAAITRSGGRTYYADSVKGRFTISRDNAKNTVYLQMNSLIPEDTAVYYCAVDTVTRTVLVYGDRNDSWGQGTQVTVSS
polyreactivity (PSR sort gate): high polyreactivity

QVQLVESGGGLVQAGGSLRLSCAASGFIFTRYAMGWYRQAPGKERELVAAISGTGGSTYYADSVKGRFTISRDNSKNTFFLQMNSLKPEDTAVYYCAAGYFVYLKYGYWGQGTKVTVSS
polyreactivity (PSR sort gate): high polyreactivity

QVQLVESGGGLVQAGGSLRLSCAASGFIFTTYGMGWYRQAPGKERELVAAISYRGDSTYYADSVKGRFTISRDNAKNTVYLQMNSLKPEDTAVYYCAADVTQKPYGLSHGQDAYDYWGQGTQVTVSS
polyreactivity (PSR sort gate): low polyreactivity

QVQLVESGGGLVQAGGSLRLSCAASGFIFTYNAMGWYIQAPGKEREFVASISRSGGRTYYADSVKGRFTISRDNAKNTVYLQMNSLKPEDTAVYYCAARNAYVYGMDYWGQGTQVTVSS
polyreactivity (PSR sort gate): low polyreactivity

QVQLVESGGGLVQAGGSLRLSCAASGFIFTYNAMGWYRQAPGKERELVASIRSTGGSTYYADSVKGRFTISRDNAKNTVYLQMNSLKPEDTAVYYCAARARGTNMYYWGQGTQVTVSS
polyreactivity (PSR sort gate): high polyreactivity

QVQLVESGGGLVQAGGSLRLSCAASGFIFTYNTMGWDRQAPGKERELVAAISLRGGNTYYADSVKGRFTISRDNAKNTVYLQMHSLKPEDTAVYYCAALGKYRSGNYFGQGTQVTVSS
polyreactivity (PSR sort gate): high polyreactivity

QVQLVESGGGLVQAGGSLRLSCAASGFIFTYYAMGWYRPEHGKERDLVATINWSDGSTRYADSVKGRFTISRDNAKNTDYLQMNSLKPEDTAVYYCAKDWFNRPSVEMDYWGQGTQVTVSS
polyreactivity (PSR sort gate): low polyreactivity

QVQLVESGGGLVQAGGSLRLSCAASGFIFTYYAMGWYRQAPGKERELVAAISWDGGSTYYADSVKGRFTISRDNAKNTVYLQMNSLKPEDTAVYYCNRDLYGYVRYDYWGQGTQVTVSS
polyreactivity (PSR sort gate): low polyreactivity
